Assay results from patent US20070219139A1 (POSCO, published 2007).
Where no end group is shown, it is not given here. [ ]: non-standard residue; d: D form.

T1: formyl peptide receptor (UniProt P21462 1-350, limits assumed)
T1 sequence (looked up): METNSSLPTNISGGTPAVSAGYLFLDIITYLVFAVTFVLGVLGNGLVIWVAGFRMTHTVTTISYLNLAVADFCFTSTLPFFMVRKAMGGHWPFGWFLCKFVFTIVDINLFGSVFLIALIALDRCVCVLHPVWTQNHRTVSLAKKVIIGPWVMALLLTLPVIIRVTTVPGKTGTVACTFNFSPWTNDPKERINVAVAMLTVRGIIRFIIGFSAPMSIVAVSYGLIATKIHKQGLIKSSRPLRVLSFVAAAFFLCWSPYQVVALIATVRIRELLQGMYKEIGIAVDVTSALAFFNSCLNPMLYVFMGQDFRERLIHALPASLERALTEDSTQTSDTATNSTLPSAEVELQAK

T2: formyl peptide receptor-like 1 (UniProt P25090 1-351, limits assumed)
T2 sequence (looked up): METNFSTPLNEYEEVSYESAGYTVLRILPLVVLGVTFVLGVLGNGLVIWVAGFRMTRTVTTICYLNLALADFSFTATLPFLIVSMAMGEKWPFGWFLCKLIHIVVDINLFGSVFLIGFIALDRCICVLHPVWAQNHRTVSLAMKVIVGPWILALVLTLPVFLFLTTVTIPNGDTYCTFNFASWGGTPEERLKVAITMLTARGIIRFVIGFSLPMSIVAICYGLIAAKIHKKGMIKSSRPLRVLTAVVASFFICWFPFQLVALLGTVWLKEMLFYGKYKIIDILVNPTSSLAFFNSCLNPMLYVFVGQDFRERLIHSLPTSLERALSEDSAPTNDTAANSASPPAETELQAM

B1: Trp-Lys-Tyr-Met-Gly-D-Met-NH2 (peptide)
peptide: WKYMG[dM]-NH2
modifications: N-terminus assumed
SMILES: CSCC[C@H](NC(=O)[C@H](Cc1ccc(O)cc1)NC(=O)[C@H](CCCCN)NC(=O)[C@@H](N)Cc1c[nH]c2ccccc12)C(=O)NCC(=O)N[C@H](CCSC)C(N)=O
B2: Trp-Lys-Gly-Met-Val-D-Met-NH2 (peptide)
peptide: WKGMV[dM]-NH2
modifications: N-terminus assumed
SMILES: CSCC[C@H](NC(=O)CNC(=O)[C@H](CCCCN)NC(=O)[C@@H](N)Cc1c[nH]c2ccccc12)C(=O)N[C@H](C(=O)N[C@H](CCSC)C(N)=O)C(C)C
B3: Trp-Lys-His-Met-Val-D-Met-NH2 (peptide)
peptide: WKHMV[dM]-NH2
modifications: N-terminus assumed
SMILES: CSCC[C@H](NC(=O)[C@H](Cc1c[nH]cn1)NC(=O)[C@H](CCCCN)NC(=O)[C@@H](N)Cc1c[nH]c2ccccc12)C(=O)N[C@H](C(=O)N[C@H](CCSC)C(N)=O)C(C)C
B4: Trp-Lys-Trp-Met-Val-D-Met-NH2 (peptide)
peptide: WKWMV[dM]-NH2
modifications: N-terminus assumed
SMILES: CSCC[C@H](NC(=O)[C@H](Cc1c[nH]c2ccccc12)NC(=O)[C@H](CCCCN)NC(=O)[C@@H](N)Cc1c[nH]c2ccccc12)C(=O)N[C@H](C(=O)N[C@H](CCSC)C(N)=O)C(C)C
B5: Trp-Lys-Asp-Met-Val-D-Met-NH2 (peptide)
peptide: WKDMV[dM]-NH2
modifications: N-terminus assumed
SMILES: CSCC[C@H](NC(=O)[C@H](CC(=O)O)NC(=O)[C@H](CCCCN)NC(=O)[C@@H](N)Cc1c[nH]c2ccccc12)C(=O)N[C@H](C(=O)N[C@H](CCSC)C(N)=O)C(C)C
B6: Trp-Lys-Tyr-Met-Tyr-D-Met-NH2 (peptide)
peptide: WKYMY[dM]-NH2
modifications: N-terminus assumed
SMILES: CSCC[C@H](NC(=O)[C@H](Cc1ccc(O)cc1)NC(=O)[C@H](CCCCN)NC(=O)[C@@H](N)Cc1c[nH]c2ccccc12)C(=O)N[C@@H](Cc1ccc(O)cc1)C(=O)N[C@H](CCSC)C(N)=O
B7: Trp-Asp-Tyr-Met-Val-D-Met-NH2 (peptide)
peptide: WDYMV[dM]-NH2
modifications: N-terminus assumed
SMILES: CSCC[C@H](NC(=O)[C@H](Cc1ccc(O)cc1)NC(=O)[C@H](CC(=O)O)NC(=O)[C@@H](N)Cc1c[nH]c2ccccc12)C(=O)N[C@H](C(=O)N[C@H](CCSC)C(N)=O)C(C)C
B8: Trp-Arg-Tyr-Met-Val-D-Met-NH2 (peptide)
peptide: WRYMV[dM]-NH2
modifications: N-terminus assumed
SMILES: CSCC[C@H](NC(=O)[C@H](Cc1ccc(O)cc1)NC(=O)[C@H](CCCNC(=N)N)NC(=O)[C@@H](N)Cc1c[nH]c2ccccc12)C(=O)N[C@H](C(=O)N[C@H](CCSC)C(N)=O)C(C)C
B9: Trp-Lys-Glu-Met-Val-D-Met-NH2 (peptide)
peptide: WKEMV[dM]-NH2
modifications: N-terminus assumed
SMILES: CSCC[C@H](NC(=O)[C@H](CCC(=O)O)NC(=O)[C@H](CCCCN)NC(=O)[C@@H](N)Cc1c[nH]c2ccccc12)C(=O)N[C@H](C(=O)N[C@H](CCSC)C(N)=O)C(C)C
B10: Trp-His-Tyr-Met-Val-D-Met-NH2 (peptide)
peptide: WHYMV[dM]-NH2
modifications: N-terminus assumed
SMILES: CSCC[C@H](NC(=O)[C@H](Cc1ccc(O)cc1)NC(=O)[C@H](Cc1c[nH]cn1)NC(=O)[C@@H](N)Cc1c[nH]c2ccccc12)C(=O)N[C@H](C(=O)N[C@H](CCSC)C(N)=O)C(C)C
B11: Trp-Lys-Phe-Met-Val-D-Met-NH2 (peptide)
peptide: WKFMV[dM]-NH2
modifications: N-terminus assumed
SMILES: CSCC[C@H](NC(=O)[C@H](Cc1ccccc1)NC(=O)[C@H](CCCCN)NC(=O)[C@@H](N)Cc1c[nH]c2ccccc12)C(=O)N[C@H](C(=O)N[C@H](CCSC)C(N)=O)C(C)C
B12: Trp-Glu-Tyr-Met-Val-D-Met-NH2 (peptide)
peptide: WEYMV[dM]-NH2
modifications: N-terminus assumed
SMILES: CSCC[C@H](NC(=O)[C@H](Cc1ccc(O)cc1)NC(=O)[C@H](CCC(=O)O)NC(=O)[C@@H](N)Cc1c[nH]c2ccccc12)C(=O)N[C@H](C(=O)N[C@H](CCSC)C(N)=O)C(C)C
B13: Met-Val-D-Met-NH2 (peptide)
peptide: Met-Val-[dM]-NH2
modifications: N-terminus assumed
SMILES: CSCC[C@H](N)C(=O)N[C@H](C(=O)N[C@H](CCSC)C(N)=O)C(C)C
B14: Trp-Lys-Arg-Met-Val-D-Met-NH2 (peptide)
peptide: WKRMV[dM]-NH2
modifications: N-terminus assumed
SMILES: CSCC[C@H](NC(=O)[C@H](CCCNC(=N)N)NC(=O)[C@H](CCCCN)NC(=O)[C@@H](N)Cc1c[nH]c2ccccc12)C(=O)N[C@H](C(=O)N[C@H](CCSC)C(N)=O)C(C)C

molecular target: T1, formyl peptide receptor; experiment: cell-based or functional assay

Row | Binder | [Ca^2+]i increase in FPR-expressing RBL-2H3 cells
1 | B1 | > 20 µM
2 | WKYMVW-NH2 [Trp-Lys-Tyr-Met-Val-Trp-NH2] | > 20 µM
3 | WKYMVV-NH2 [Trp-Lys-Tyr-Met-Val-Val-NH2] | > 20 µM
4 | WKYMVG-NH2 [Trp-Lys-Tyr-Met-Val-Gly-NH2] | > 20 µM
5 | WKYMVR-NH2 [Trp-Lys-Tyr-Met-Val-Arg-NH2] | > 20 µM
6 | WKYMVE-NH2 [Trp-Lys-Tyr-Met-Val-Glu-NH2] | > 20 µM
7 | B2 | > 20 µM

molecular target: T1, formyl peptide receptor; experiment: cell-based or functional assay; remark: another data set of the same source

Row | Binder | EC50 of intracellular calcium increase in FPR-expressing RBL-2H3 cells (fura-2)
8 | B3 | 280 nM
9 | B4 | 18.8 nM
10 | B5 | 1330 nM
11 | B6 | 665 nM
12 | B7 | 98.9 nM
13 | B8 | 54.9 nM
14 | B9 | 1330 nM
15 | B10 | 31.7 nM
16 | B11 | 17.7 nM
17 | YMV[dM]-NH2 [Tyr-Met-Val-D-Met-NH2] | 569 nM
18 | B12 | 317 nM

molecular target: T2, formyl peptide receptor-like 1; experiment: cell-based or functional assay

Row | Binder | EC50 of intracellular calcium increase in FPRL1-expressing RBL-2H3 cells (fura-2)
19 | B1 | 18.1 nM
20 | WKYMV-NH2 [Trp-Lys-Tyr-Met-Val-NH2] | 918 nM
21 | B3 | 1.94 nM
22 | WKYMVW-NH2 [Trp-Lys-Tyr-Met-Val-Trp-NH2] | 194 nM
23 | B4 | 0.16 nM
24 | B5 | 8.73 nM
25 | B6 | 0.29 nM
26 | B7 | 14.3 nM
27 | B8 | 0.12 nM
28 | B9 | 28.3 nM
29 | B10 | 0.72 nM
30 | KYMV-NH2 [Lys-Tyr-Met-Val-NH2] | > 30000 nM
31 | B11 | 0.23 nM
32 | WKYMVV-NH2 [Trp-Lys-Tyr-Met-Val-Val-NH2] | 1260 nM
33 | YMV[dM]-NH2 [Tyr-Met-Val-D-Met-NH2] | 17.1 nM
34 | B13 | > 30000 nM
35 | B12 | 5.23 nM
36 | WKYMVG-NH2 [Trp-Lys-Tyr-Met-Val-Gly-NH2] | 5950 nM
37 | B14 | 2.06 nM
38 | WKYMVR-NH2 [Trp-Lys-Tyr-Met-Val-Arg-NH2] | 178 nM
39 | WKYMVE-NH2 [Trp-Lys-Tyr-Met-Val-Glu-NH2] | 503 nM
40 | B2 | 21.3 nM
